According to the supplement of paper PMC9170038:

Tested on: K4 kissing-loop RNA reporter
Test: apparent KD of K4 kissing-loop reporter; higher = weaker reporter binding
Details: Eterna round: R107
Procedure: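 RNA-MaP round R107: designed RNA switches with theophylline, tryptophan, arginine or FMN aptamers are transcribed on-chip within common flanks. They are titrated with a labelled K4 kissing-loop RNA reporter in RNA-MaP buffer (100 mM Tris pH 7.5, 80 mM KCl, 4 mM MgCl2), without ligand or with the indicated ligand. Median apparent KD per design.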

[1] = input ligand: theophylline 20 uM
[2] = input ligand: tryptophan 2.4 mM
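Further: bound reporter read as fluorescence of individual clusters on recovered sequencing chips by microscopy, with normalized cluster intensities fitted with a binding model.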

Row | Sequence | apparent KD of K4 kissing-loop reporter (input ligand: FMN 200 uM) | apparent KD of K4 kissing-loop reporter (input ligand: arginine 13.2 mM) | apparent KD of K4 kissing-loop reporter (input ligand: none) | apparent KD of K4 kissing-loop reporter [1] | apparent KD of K4 kissing-loop reporter [2]
1 | UGAUAAUGCAGUGAUGUUGCUAGAAACGAUACCAGUUAAGAAAAGAACCCUUGGCAGCGUAAAGUGCGCUCUAAUGAGUGUGCUU [#10 K4 Theophylline A Same State] | 164 nM | 195 nM | 194 nM | 212 nM | 132 nM
2 | UGAUACCAGACGGCCGCCACUAGGACCGGGAGUGAUGUUCCCAAAUUAAAAUACUCGGCCGCCACUAGGACCGGGUCUGGUAUCU [TrypBX 26 #DoubleAptamer #SwitchBubble] | 244 nM | 269 nM | 295 nM | 360 nM | 113 nM
3 | UGAUACCAGACGGCCGCCACUCCCGUAAGUCAAAGACUUACGAAGAGUAUCGUCCAGUGAUGUUGGAGGACCGGGUCUGGUAUCU [FiskerMod 10 - Jieux - Exclusion - Tryptophan B] | 344 nM | 298 nM | 338 nM | 320 nM | 729 nM
4 | UGAUACCAGACGGCCGCCACUCCUGCAAGUCAAAGACUUGCUAAAGGAAUCGUCCAGUGAUGUUGGAGGACCGGGUCUGGUAUCU [TrypBX 18 #SwitchBubble #Palindromic #StaticStem] | 1040 nM | 745 nM | 1160 nM | 890 nM | 602 nM
5 | UGAUACCAGACGGCCGCCACUCCUGCAGUCAAAGACUGCUAGGAAAUAUUCGUCCAGUGAUGUUGGAGGACCGGGUCUGGUAUCU [TrypBX 10 #SwitchBubble #Palindromic #StaticStem] | 791 nM | 600 nM | 740 nM | 633 nM | 894 nM
6 | UGAUACCAGACGGCCGCCACUGCACCAGUCAAUGACUGAGUGUAGUAUUGCUCAGUGAUGUUGAGUAGGACCGGGUCUGGUAUCU [Mod of Eli's TrypBX 8] | 109 nM | 113 nM | 108 nM | 128 nM | 115 nM
7 | UGAUACCAGACGGCCGCCACUGCGCCAGUCAAUGACUGAGCGCGGUGGCGCUCAGUGAUGUUGAGCAGGACCGGGUCUGGUAUCU [Mod of Eli's TrypBX 8 v5] | 149 nM | 126 nM | 146 nM | 144 nM | 147 nM
8 | UGAUACCAGACGGCCGCCACUGGGACCGGGAGUGAUGUUCCGAAAAUUAAAUGCUCGGCCGCCACUAGGACCGGGUCUGGUAUCU [TrypBX 29 #DoubleAptamer #SwitchBubble] | 727 nM | 407 nM | 446 nM | 231 nM | 453 nM
9 | UGAUACCAGACGGCCGCCACUUCCGUAAGUCAAAGACUUACCAAGAGAAUCGUCCAGUGAUGUUGGAGGACCGGGUCUGGUAUCU [FiskerMod 7 - Jieux - Exclusion - Tryptophan B] | 931 nM | 654 nM | 979 nM | 849 nM | 872 nM
10 | UGAUACCAGACUGAUACCAGCCAGUGAUGUUGGCUGAAAUCAGGGUCAAAGACCCUGUCUGGCCCUUGGCAGCAGUCUGGUAUCU [TheoBX 19 #SwitchBubble #StaticStem] | 329 nM | 251 nM | 291 nM | 332 nM | 281 nM
11 | UGAUAGCCAGUGAUGUUGGCAUGUACUGAAGGAGCGCGUGGAAACGCAGGUAGGUCGCAGUUCCUUGCCAAUUGAUCGAAAGAUC [#09 K4 Arginine A Exclusion] | 249 nM | 288 nM | 320 nM | 395 nM | 239 nM
12 | UGAUAGGACAGAAGGAGCGGAAGUGAUGUUUCCAAUGGAAUUAAGGUGUCAAAGACACCCUUCCAGGUAGGUCGCUGUCCUAUCU [ArgBX 18 #Palindromic #SwitchBubble #StaticStem] | 156 nM | 161 nM | 155 nM | 159 nM | 145 nM
13 | UGAUAGGACAGAAGGAGCGGAAUGCUGUCCAAAAGGACAGCAAAUAUAAAAGGAGUGAUGUUCCAGGUAGGUCGCUGUCCUAUCU [ArgBX 20 #SwitchBubble #StaticStem] | 271 nM | 206 nM | 219 nM | 234 nM | 203 nM
14 | UGAUAGGACAGAAGGAGCGGGAGUGAUGUUCCCAAAAGAAUAAGGUGUCAAAAGACACCCUUCCAGGUAGGUCGCUGUCCUAUCU | 82.2 nM | 131 nM | 106 nM | 119 nM | 87.4 nM
15 | UGAUAGGACAGAAGGAGCGGGAGUGAUGUUCCCAAAAGGGUAAGGUGUCAAAAGACACCCUCCCAGGUAGGUCGCUGUCCUAUCU | 155 nM | 191 nM | 154 nM | 175 nM | 148 nM
16 | UGAUAGGACAGAAGGAGCGGUAGUGAUGUUGCCAAAAGGAUAAGGUGUCAAAAGACACCCUACCAGGUAGGUCGCUGUCCUAUCU | 175 nM | 216 nM | 154 nM | 179 nM | 152 nM

Row | Sequence | apparent KD of K4 kissing-loop reporter (input ligand: FMN 200 uM) | apparent KD of K4 kissing-loop reporter (input ligand: arginine 13.2 mM) | apparent KD of K4 kissing-loop reporter (input ligand: none) | apparent KD of K4 kissing-loop reporter [1] | apparent KD of K4 kissing-loop reporter [2]
17 | UGAUAGGAGUGAAGGAGCGGGAGUGAUGUUCCCAAAAUGGAAGCCUGUAAAAUACAGGCCUCCCAGGUAGGUCGCACUCCUAUCU [KL-XARG-B17] | 98.3 nM | 112 nM | 101 nM | 117 nM | 94.7 nM
18 | UGAUUUAACUGAAGGAGCGGCAAUUGAUAAGUAAAUAUAGUGAUGUUAUAUAAGAUAGAGAGCCAGGUAGGUCGCAGAGGUAUUA [ExArgB.M] | 154 nM | 154 nM | 132 nM | 210 nM | 142 nM
19 | UGCACGGGCUCGGCCGCCACUCCAGCGGGUCGAAAGGUCCGCUACUGAGUGAUGUUCGGUUGGAGGAGGACCGGGAGCCCGUGCA [#2 Exclusion - Tryptophan B Attempt #28 (HarryS)] | 98.9 nM | 97.9 nM | 122 nM | 115 nM | 140 nM
20 | UGCAGUGAUGUUGCUAUUUGUCUUGAUAAACGAGGACCGGUACGGCCGCCACUCGAUUUCUCUCUUAUCGGGUAUGUUGUUUAGU [#21 K4 Tryptophan A Exclusion] | 156 nM | 186 nM | 172 nM | 205 nM | 113 nM
21 | UGCAGUGAUGUUGCUAUUUGUCUUGAUUAACGAGGACCGGUACGGCCGCCACUCGAUUUCUCUCUAAUCGGGUAUGUUGUUUAGU [#20 K4 Tryptophan A Exclusion] | 154 nM | 200 nM | 170 nM | 187 nM | 119 nM
22 | UGCAGUGAUGUUGCUAUUUUUCUUGAUUAACGAGGACCGGUACGGCCGCCACUCGAUUUCUCUCUAAUCCAGUAUGUUGUUUAAU [whbob_EX_Tryp_A_t4] | 114 nM | 137 nM | 114 nM | 143 nM | 86.1 nM
23 | UGCAUGCUAGUAGUGAUGUUACAUGAUGAUACCAGUGCUUUUUUGCACCCUUGGCAGCGUCAUUUUGCAUGCACGUCGAAAGACG | 511 nM | 473 nM | 565 nM | 344 nM | 474 nM
24 | UGCGUCGGUUCAGAUACCAGCCAAUUAGAGUCGAGUGAUGUUCGACAUUGAACGUCCAAAGGCCCUUGGCAGCUGGAUUGAGGAU [Same State Theophylline B GF 21] | 211 nM | 104 nM | 114 nM | 189 nM | 87.3 nM
25 | UGCUCACAUAGAGGAUAUCUCAUAUGAGACAGUGAUGUUGUCUCAUAUAGACAUGUAAGUCUCAUGAGAGAAGGCUGUGUGAGCA [FMN B SS t8] | 140 nM | 106 nM | 117 nM | 99.3 nM | 113 nM
26 | UGGACCUGACUCGAUACGAGUCAAUGAGAUACCAGCCACGAAAGUGGCCCUUGGCAGCUCUGCCAGUGAUGUUGGUCAAGGUCCU [#SwitchBubble 9 #StaticStem] | 1540 nM | 1140 nM | 1530 nM | 765 nM | 1360 nM
27 | UGGACGUUAUACAAAUAGUAUAACUGGGAUACCAGUGACGAAAGUCACCCUUGGCAGCUCAACUGCCAGUGAUGUUGGUAGUCCA [Astros-Eli-mod#4] | 307 nM | 158 nM | 172 nM | 239 nM | 145 nM
28 | UGGAGGAAUCGACCUCGAAAGAGGAUGGAUACCAGAGAAGAAAUUCUCCCUUGGCAGCCAGUGAUGUUGGAACCUCCUAAAUAAA [#SwitchBubble 18 #K4Late] | 609 nM | 445 nM | 706 nM | 354 nM | 622 nM
29 | UGGAGUUGACGAAAAGUCAACUCCCGAGAAGGAGCGGACGAAAGUCCAGGUAGGUCGCUCGCUACCAGUGAUGUUGGUACUUUAA | 147 nM | 189 nM | 174 nM | 219 nM | 147 nM
30 | UGGAGUUGACGAAAAGUCAACUCCUGAGAAGGAGCGGACGAAAGUCCAGGUAGGUCGCUCACUACCAGUGAUGUUGGUACUUUAA | 228 nM | 285 nM | 320 nM | 361 nM | 222 nM
31 | UGGAGUUGACGAAAAGUCAACUCCUGAGAAGGAGCGGACGAAAGUCCAGGUAGGUCGCUCACUGCCAGUGAUGUUGGUAAAUAAA [#OpenEnded 1 - Direct theophylline transfer] | 89.5 nM | 175 nM | 113 nM | 144 nM | 82.8 nM
